# Results: paper PMC10626543, “Native lamin A/C proteomes and novel partners from heart and skeletal muscle in a mouse chronic inflammation model of human frailty” (Frontiers in Cell and Developmental Biology, 2023)
# T1: recombinant lamin A tail (residues 385–646 of human mature lamin A) (human, UniProt P02545 385-646)
# T1 construct: lamin A, human, residues 385-646 of mature lamin A: flexible linker 385-429, Ig-fold 430-544, disordered 545-646; also called lamin A tails; LamA; not shown: His tag, C-terminal, kept
# T1 sequence (looked up): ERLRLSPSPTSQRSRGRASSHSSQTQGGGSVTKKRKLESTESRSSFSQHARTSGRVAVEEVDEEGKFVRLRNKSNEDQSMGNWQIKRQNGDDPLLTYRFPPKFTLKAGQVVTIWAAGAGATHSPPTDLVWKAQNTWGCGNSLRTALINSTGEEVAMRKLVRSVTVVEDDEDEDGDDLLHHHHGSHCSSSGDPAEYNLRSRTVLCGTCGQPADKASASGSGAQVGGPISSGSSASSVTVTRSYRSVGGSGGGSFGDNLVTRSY
# B1: Tmem38A peptide k16 (aa 197–216) (peptide)
# peptide: FTLQQTRWLPVSKASLIFIF
# notes: Tmem38a, human, residues 197-216; source: synthetic peptide, on cellulose array
# B2: Lmcd1 peptide v17 (aa 309–328) (peptide)
# peptide: SGCDEIIFAEDYQRVEDLAW
# notes: Lmcd1, human, residues 309-328 (second LIM domain); source: synthetic peptide, on cellulose array
# B3: prelamin A peptide W14 (aa 450–469) (peptide)
# peptide: KFVRLRNKSNEDQSMGNWQI
# notes: prelamin A, human, residues 450-469 (Ig-fold); source: synthetic peptide, on cellulose array
# B4: Tmem38A peptide j13 (aa 36–55) (peptide)
# peptide: YLKYEPGAVELSRRHPIASW
# notes: Tmem38a, human, residues 36-55; source: synthetic peptide, on cellulose array
# B5: AldoA peptide r20 (aa 309–328) (peptide)
# peptide: SALKAWGGKKENLKAAQEEY
# notes: AldoA, human, residues 309-328; source: synthetic peptide, on cellulose array
# B6: prelamin A peptide W19 (aa 485–504) (peptide)
# peptide: PKFTLKAGQVVTIWAAGAGA
# notes: prelamin A, human, residues 485-504 (Ig-fold); source: synthetic peptide, on cellulose array
# B7: Perm1 peptide j2 (aa 737–756) (peptide)
# peptide: FVAFATWAVRTSDPHTPDAW
# notes: Perm1, human, residues 737-756; source: synthetic peptide, on cellulose array
# B8: AldoA peptide r18 (aa 295–314) (peptide)
# peptide: PWALTFSYGRALQASALKAW
# notes: AldoA, human, residues 295-314; source: synthetic peptide, on cellulose array
# B9: prelamin A peptide X1 (aa 499–518) (peptide)
# peptide: AAGAGATHSPPTDLVWKAQN
# notes: prelamin A, human, residues 499-518 (Ig-fold); source: synthetic peptide, on cellulose array
# B10: Tmem38A peptide k10 (aa 155–174) (peptide)
# peptide: KGSGVALMSNFEQLLRGVWK
# notes: Tmem38a, human, residues 155-174; source: synthetic peptide, on cellulose array
# B11: AldoA peptide r19 (aa 302–321) (peptide)
# peptide: YGRALQASALKAWGGKKENL
# notes: AldoA, human, residues 302-321; source: synthetic peptide, on cellulose array
# B12: Perm1 peptide h5 (aa 441–460) (peptide)
# peptide: SSGLVSTPVPRADAAGLAWP
# notes: Perm1, human, residues 441-460; source: synthetic peptide, on cellulose array
# B13: Perm1 peptide h16 (aa 529–548) (peptide)
# peptide: QTATGAHGGPGAWEAVAVGP
# notes: Perm1, human, residues 529-548; source: synthetic peptide, on cellulose array
# B14: Perm1 peptide i4 (aa 593–612) (peptide)
# peptide: EENEEAEAAAAGQDPAGVQW
# notes: Perm1, human, residues 593-612; source: synthetic peptide, on cellulose array
# Biological target: T1, recombinant lamin A tail (residues …)
# Assay: peptide or protein array; synthetic 20-mer peptides (7-residue offset) on cellulose; probed 3 h at room temperature with 190 nM His-tagged lamin A tail in casein blocking solution (TBS-T, sucrose, pH 7.0); bound lamin detected with anti-lamin A/C clone 14 and AP-conjugated secondary antibody; two experiments, each with an antibodies-only control
# Conditions: both partners purified
row,binding result,Binder
1,binds,B1
2,binds,B2
3,binds,B3
4,binds,B4
5,binds,B5
6,binds,B6
7,binds,B7
8,binds,B8
9,binds,B9
10,binds,B10
11,binds,B11
12,binds,B12
13,binds,B13
14,binds,B14
